Measurements from patent US20230020729A1 (Memorial Sloan Kettering, published 2023).

The binders below were run against T1, human Fc Receptor-Like 5 (FcRL5), full length, expressed on cells (human, UniProt Q96RD9 16-977) (assay: scFv phage: ELISA on His-tag FcRL5, flow cytometry on FcRL5-overexpressing 3T3 and Raji cells).
T1 construct: also called CD307e; IRTA2
T1 sequence: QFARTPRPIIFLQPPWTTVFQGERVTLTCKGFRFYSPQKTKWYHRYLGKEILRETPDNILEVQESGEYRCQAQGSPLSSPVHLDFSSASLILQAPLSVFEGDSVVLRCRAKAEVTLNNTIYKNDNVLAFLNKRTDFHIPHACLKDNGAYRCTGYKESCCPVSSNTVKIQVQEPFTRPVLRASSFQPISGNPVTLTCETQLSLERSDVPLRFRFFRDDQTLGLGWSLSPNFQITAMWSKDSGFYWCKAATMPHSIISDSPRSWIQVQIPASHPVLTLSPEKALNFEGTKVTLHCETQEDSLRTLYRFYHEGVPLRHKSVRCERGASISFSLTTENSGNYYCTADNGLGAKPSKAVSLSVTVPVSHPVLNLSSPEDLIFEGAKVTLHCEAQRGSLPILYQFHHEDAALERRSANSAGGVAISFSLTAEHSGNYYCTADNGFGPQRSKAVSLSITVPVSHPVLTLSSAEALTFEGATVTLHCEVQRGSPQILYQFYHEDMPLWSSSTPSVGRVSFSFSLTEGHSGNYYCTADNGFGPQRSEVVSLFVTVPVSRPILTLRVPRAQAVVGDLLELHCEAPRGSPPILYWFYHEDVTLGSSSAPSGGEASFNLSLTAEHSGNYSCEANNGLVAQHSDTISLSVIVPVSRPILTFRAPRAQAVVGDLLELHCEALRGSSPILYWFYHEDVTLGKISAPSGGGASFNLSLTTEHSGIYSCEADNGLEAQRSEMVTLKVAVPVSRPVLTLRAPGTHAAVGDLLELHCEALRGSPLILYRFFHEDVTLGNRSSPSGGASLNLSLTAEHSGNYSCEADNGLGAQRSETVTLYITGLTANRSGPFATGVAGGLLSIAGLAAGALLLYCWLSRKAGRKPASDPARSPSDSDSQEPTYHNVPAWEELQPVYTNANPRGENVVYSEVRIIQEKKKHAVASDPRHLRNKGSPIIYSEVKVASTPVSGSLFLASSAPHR

Binder	binding result
ET200-029 scFv (scFv, VL-linker-VH; screened as scFv phage clone) scFv: QAVLTQPPSVSVAPGKTARVTCGGNNIGSESVHWYQQKPGQAPVLVIYYDTDRPSGIPERFSGSHSGTTATLTISRVEAGDEADYYCQVWDSSRDHVVFGGGTKLTVLGSRGGGGSGGGGSGGGGSLEMAQVQLVQSGGGVVQPGRSLRLSCAASGFTFSSYAMHWVRQAPGKGLEWVAVISYDGSNKYYADSVKGLFTISRDNSKNTLYLQMNSLRAEDTAVYYCARSYFTSGFYDYWGQGTLVTVSS	binds
ET200-030 scFv (scFv, VL-linker-VH; screened as scFv phage clone) scFv: QSVVTQPPSVSGAPGQRVTISCTGSSSNIGAGYDVNWYQQFPGTAPKLLIYGNSNRPSGVPDRFSGSKSGTSASLAITGLQAEDEADYYCQSYDSSLSGSYVFGTGTKVTVLGSRGGGGSGGGGSGGGGSLEMAQMQLVQSGAEVKKPGASVKVSCKASGYTLTELSMHWVRQAPGKGLEWMGGFDPEDGETIYAQKFQGRVTMTEDTSTDTAYMELSSLRSEDTAVYYCARMSSMYYDWGQGTLVTVSS	binds
ET200-031 scFv (scFv, VL-linker-VH; screened as scFv phage clone; also called ET200-31) scFv: SYVLTQPPSVSVAPGKTARITCGGNNIGSKSVHWYQQKPGQAPVLVIYYDSDRPSGIPERFSGSNSGNTATLTISRVEAGDEADYYCQVWDSSSDYVFGTGTKVTVLGSRGGGGSGGGGSGGGGSLEMAEVQLVETGGGLVKPGGSLRLSCAASGFTVSDYYMSWIRQAPGKGLEWISYISGSGNSIYYADSVKGRFTISRDNAKNSLDLQMTSLRAEDTAVYYCARSTKFDYWGQGTLVTVSS	binds
ET200-003 scFv (scFv, VL-linker-VH; screened as scFv phage clone) scFv: QSVLTQPPSVSVSPGQTASISCSGNKLGTKYVYWYQKRPGQSPVLVMYEDNQRPSGIPERFSGSNSGNTATLTIRGTQTVDEADYYCQAWDSDTFVVFGGGTKVTVLGSRGGGGSGGGGSGGGGSLEMAEVQLVETGGGVVQPGRSLRLSCAASGFTFSSYGMHWVRQAPGKGLEWVAVISHDGSNKYYADSVKGRFTISRDNSKDTLYLQMNSLRGEDTAVYYCARSNQWSGYFSFDYWGQGTLVTVSS	binds
ET200-032 scFv (scFv, VL-linker-VH; screened as scFv phage clone) scFv: LPVLTQPPSASGTPGQRVTISCSGSSSNVGSYTVNWYRQLPGTAPTLLIYNNNQRPSGVPDRFSDSKSGTSASLTISGLQPEDEADYYCAAWDDRLGGYVFGTGTKVTVLGSRGGGGSGGGGSGGGGSLEMAEVQLVQSGAEVKKPGESLKISCKGSGYSFTNYWIGWVRQMPGKGLEWMGIIYPGDSDTRYSPSFQGQVTISADKSISTAYLQWSSLKASDTAMYYCARSTGSSHMSDEWGQGTLVTVSS	binds
ET200-033 scFv (scFv, VL-linker-VH; screened as scFv phage clone) scFv: NFMLTQPHSVSESPGKTVTISCTGSSGSIASNYVQWYQQRPGSAPTTVIYEDNQRPSGVPDRFSGSIDSSSNSASLTISGLKTEDEADYYCQSYDSSNHWVFGGGTKLTVLGSRGGGGSGGGGSGGGGSLEMAQVQLQQWGAGLLKPSETLSLTCAVYGGSFSGYYWSWIRQPPGKGLEWIGEITHSGRSNYNPSLKSRVTISVDTSKNQFSLKLSSVTAADTAVYYCARSSIMSDYWGQGTLVTVSS	binds
ET200-034 scFv (scFv, VL-linker-VH; screened as scFv phage clone) scFv: QSVLTQPPSVSGAPGQRVTISCTGSTSNIGAGYDVHWYQQLPGTAPKLLINNNRNRPSGVPDRFSGSKSGTSATLGITGLQTGDEADYYCGTWDGSLTGAVFGGGTKLTVLGSRGGGGSGGGGSGGGGSLEMAEVQLVQSGAEVKKPGSSVKVSCKASGGTFSSYAISWVRQAPGQGLEWMGGIIPIFGTANYAQKFQGRVTITADESTSTAYMELSSLRSEDTAVYYCARGSALDHYDRWGQGTLVTVSS	binds
ET200-038 scFv (scFv, VL-linker-VH; screened as scFv phage clone) scFv: QSVLTQPPSVSGAPGQRVTISCTGSSSNIGAGFDVHWYQLLPGTAPKLLIYANSNRPSGVPDRFSGSKSGTSASLAITGLLAEDEADYYCQSYDSSLSGVVFGGGTKLTVLGSRGGGGSGGGGSGGGGSLEMAQVQLVQSGAEVKKPGSSVKVSCKASGGTFSSYAISWVRQAPGQGLEWMGGIIPIFGTANYAQKFQGRVTITADESTSTAYMELSSLRSEDTAVYYCARGASFDRHDNWGQGTLVTVSS	binds
ET200-040 scFv (scFv, VL-linker-VH; screened as scFv phage clone) scFv: QSVLTQPPSVSGAPGQRVTISCTGSSSNIGAGYDVHWYQQLPGTAPKLLIYGNSNRPSGVPDRFSGSKSGTSASLAITGLQAEDEADYYCQSYDSSLSGYVFGTGTKVTVLGSRGGGGSGGGGSGGGGSLEMAQVQLVQSGAEVKKPGASVKVSCKVSGYTLTELSMHWVRQAPGKGLEWMGGFDPEDGETIYAQKFQGRVTMTEDTSTDTAYMELSSLRSEDTAVYYCARYSGVYYDWGQGTLVTVSS	binds
ET200-041 scFv (scFv, VL-linker-VH; screened as scFv phage clone) scFv: NFMLTQPHSVSGSPGKTVTISCTGSSGSIADNFVQWYQQRPGGVPTTVIFNDDERPSGVPDRFSGSIDTSSNSASLTISGLKTEDEADYYCQSYDNNNRGVFGGGTKLTVLGSRGGGGSGGGGSGGGGSLEMAQVQLVQSGAEVKKPGSSVKVSCKASGGTFSSYAISWVRQAPGQGLEWMGWMNPNSGNTGYAQKFQGRVTMTRNTSISTAYMELSNLRSEDTAVYYCARYYSYGYDWGQGTLVTVSS	binds
ET200-042 scFv (scFv, VL-linker-VH; screened as scFv phage clone) scFv: QSVVTQPPSVSGAPGQTVTISCTGGSSNIGTGYFVNWYQQVPGKAPKLLILGNNNRPSGVPDRLSGSTSGTSASLAITGLQAEDEGTYYCQSYDSSLSGYVFGTGTKVTVLGSRGGGGSGGGGSGGGGSLEMAQVQLQQSGPGLVKPSQTLSLTCGISGDSVSTNSVAWHWIRQSPSRGLEWLGRTYYRSKWSNDYGVSVKSRITIIPDTSKNQFSLQLNSVTPEDTAVYYCARSSSWYQIFDYWGQGTLVTVSS	binds
ET200-006 scFv (scFv, VL-linker-VH; screened as scFv phage clone) scFv: SYVLTQPPSVSVAPGKTARITCGGNNIGSKSVHWYQQKPGQAPVVVIHYDSDRPSGIPERFSGSNSGNTATLTISRVEAGDEADYYCQVWDSSSDHPYVFGTGTKVTVLGSRGGGGSGGGGSGGGGSLEMAEVQLVQSGAEVKKPGASVKVSCKASGYTFTTYGISWVRQAPGQGLEWMGWINTYNGHTNYAQKLQGRATMTADTSTNTAYMELRSLRSDDTAVYYCARVIYGSGDYWGQGTLVTVSS	binds
ET200-044 scFv (scFv, VL-linker-VH; screened as scFv phage clone) scFv: QSVLTQPPSVSVSPGQTATIACSGHKLGDKYASWYQQKSGQSPVLIIYQDNKRPSGIPERFSGSNSGNTATLTISGTQALDEADYYCQAWDSSTYVAFGGGTKLTVLGSRGGGGSGGGGSGGGGSLEMAQVQLQESGPGLVKPSETLSLTCVVSGGSISSSNWWSWVRQPPGKGLEWIGEIYHSGSPNYNPSLKSRVTISVDKSKNQFSLKLSSVTAADTAVYYCARMTTHTFGYDAWGQGTLVTVSS	binds
ET200-045 scFv (scFv, VL-linker-VH; screened as scFv phage clone) scFv: QPVLTQPPSVSVAPGKTATITCGGNNIGSESVHWYHQKPGQAPVLVIYDDAGRPSGIPERFTGSNSGNTATLTISRVEAGDEADYYCQVWDRNSAQFVFGPGTKVTVLGSRGGGGSGGGGSGGGGSLEMAEVQLVQSGAEVKKPGASVKVSCKASGYTFTSYGISWVRQAPGQGLEWMGWISAYNGNTNYAQKLQGRVTMTTDTSTSTAYMELRSLRSDDTAVYYCARGVHLDWWGQGTLVTVSS	binds
ET200-069 scFv (scFv, VL-linker-VH; screened as scFv phage clone; also called ET200-69) scFv: QSVVTQPPSASGTPGQRVTISCSGSSSNIGSNYVYWYQQLPGTAPKLLIYSNNQRPSGVPDRFSGSKSGTSASLAISGLRSEDEADYYCAAWDDSLSGYVFGTGTKLTVLGSRGGGGSGGGGSGGGGSLEMAQVQLQQWGAGLLKPSETLSLTCAVYGGSFSGYYWSWIRQPPGKGLEWIGEINHSGSTNYNPSLKSRVTISVDTSKNQFSLKLSSVTAADTAVYYCARLYEGGYHGWGSWLSSDSWGQGTLVTVSS	binds
ET200-079 scFv (scFv, VL-linker-VH; screened as scFv phage clone) scFv: SYELTQPPSASGTPGQRVTISCSGSSSNIGSNYVYWYQQLPGTAPKLFIYRNNQRPSGVPDRFSGSKSGTSASLAISGLRSEDEADYYCAAWDDSLSGYLFGTGTKVTVLGSRGGGGSGGGGSGGGGSLEMAEVQLVESGGGLVQPGRSLRLSCAASGFTFDDYAMHWVRQAPGKGLEWVSGISWNSGSIGYADSVKGRFTISRDNAKNSLYLQMNSLRAEDTALYYCANGDSNYYYGMDVWGQGTTVTVSS	binds
ET200-081 scFv (scFv, VL-linker-VH; screened as scFv phage clone) scFv: QSALTQPASVSGSPGQSITISCTGTSSDIGGYNYVSWYQQHPGKAPKLMIYDVSNRPSGVSNRFSGSKSGNTASLTISGLQAEDEADYYCISYTRTWNPYVFGSGTKVTVLGSRGGGGSGGGGSGGGGSLEMAEVQLVQSGGGVVQPGGSLRLSCAASGFTFDDYAMHWVRQAPGKGLEWVSLISGDGGSTYYADSVKGRFTISRDNSKNSLYLQMNSLRTEDTALYYCAKDRAAAGYYYYGMDVWGQGTTVTVSS	binds
